Reference: publication PMC2919055 (Proteins, 2010)
“And” between values parts separate entries of the source, which are not always exact repeats. Equal entries are not always repeated. *: point of attachment. Carboxymethyl = O=C(O)C*

Biological target: the molecule itself
Experiment: cross-linking

B1: C-MBD of A. fulgidus CopA with carboxymethylated cysteines (domain or fragment, Archaeoglobus fulgidus, UniProt O29777 736-804, looked up)
chain: GDSVEKIVLELSGLSC(Carboxymethyl)HHC(Carboxymethyl)VARVKKALEEAGAKVEKVDLNEAVVAGNKEDVDKYIKAVEAAGYQAKLRS
  stoichiometry N: 2 and 4
